According to publication PMC7954794, “Protein context shapes the specificity of SH3 domain-mediated interactions in vivo” (Nature Communications, 2021):

Test system: growth of yeast strains under 51 stress conditions
Test: Growth assays in 51 stress conditions (Fig. 1E-F, S2D, S5B)
Type: cell-based, Saccharomyces cerevisiae
Parameters: key to Growth (Fig. S2D) / growth of ABP1 SH3-swapped strains in stress condition: log2 colony size, average of median per strain (growth score)
Conditions: ABP1 SH3-swapped strains
Method in brief: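 Yeast WT, SH3-deleted, KO, SH3-swapped and SH3-shuffled strains pinned in 1536 format, 12 replicates each; pregrown on YPD 2 days at 30 °C, then replicated onto 51 media at 37 °C and imaged every 2 h. Growth score = mean of per-plate median log2 colony size at 74 h.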

B1: BOI1 (protein, UniProt P38041 1-980, looked up)
BEM1-interacting protein 1: MSLEGNTLGKGAKSFPLYIAVNQYSKRMEDELNMKPGDKIKVITDDGEYNDGWYYGRNLRTKEEGLYPAVFTKRIAIEKPENLHKSPTQESGNSGVKYGNLNDSASNIGKVSSHQQENRYTSLKSTMSDIDKALEELRSGSVEQEVSKSPTRVPEVSTPQLQDEQTLIQEKTRNEENTTHDSLFSSTADLNLSSESLKNISKSNISTKSLEPSSESVRQLDLKMAKSWSPEEVTDYFSLVGFDQSTCNKFKEHQVSGKILLELELEHLKELEINSFGIRFQIFKEIRNIKSAIDSSSNKLDADYSTFAFENQAAQLMPAATVNRDEIQQQISSKCNKLSSESSDRKSSSVTTELQRPSSVVVNPNFKLHDPAEQILDMTEVPNLFADKDIFESPGRAPKPPSYPSPVQPPQSPSFNNRYTNNNARFPPQTTYPPKNKNPTVYSNGLIPNSSTSSDNSTGKFKFPAMNGHDSNSRKTTLTSATIPSINTVNTDESLPAISNISSNATSHHPNRNSVVYNNHKRTESGSSFVDLFNRISMLSPVKSSFDEEETKQPSKASRAVFDSARRKSSYGHSRDASLSEMKKHRRNSSILSFFSSKSQSNPTSPTKQTFTIDPAKMTSHSRSQSNSYSHARSQSYSHSRKHSLVTSPLKTSLSPINSKSNIALAHSETPTSSNNKEAVSQPSEGKHKHKHKHKSKHKHKNSSSKDGSSEEKSKKKLFSSTKESFVGSKEFKRSPSELTQKSTKSILPRSNAKKQQTSAFTEGIRSITAKESMQTADCSGWMSKKGTGAMGTWKQRFFTLHGTRLSYFTNTNDEKERGLIDITAHRVLPASDDDRLISLYAASLGKGKYCFKLVPPQPGSKKGLTFTEPRVHYFAVENKSEMKAWLSAIIKATIDIDTSVPVISSYATPTIPLSKAQTLLEEARLQTQLRDAEEEEGRDQFGWDDTQNKRNSNYPIEQDQFETSDYLESSAFEYPGGRL
Bathophenanthroline.0.1uM
  Growth (Fig. S2D): 10.8558
Bathophenanthroline.10uM
  Growth (Fig. S2D): 10.6819
Bathophenanthroline.1uM
  Growth (Fig. S2D): 10.8124
CaCl2.100mM
  Growth (Fig. S2D): 10.8898
CaCl2.250mM
  Growth (Fig. S2D): 10.7569
CaCl2.500mM
  Growth (Fig. S2D): 10.2369
Caffein.10mM
  Growth (Fig. S2D): 9.961
Caffein.2mM
  Growth (Fig. S2D): 10.9473
CdCl2.100uM
  Growth (Fig. S2D): 9.222
CdCl2.10uM
  Growth (Fig. S2D): 10.8438
CdCl2.50uM
  Growth (Fig. S2D): 9.731
CuSO4.1mM
  Growth (Fig. S2D): 10.511
CuSO4.5mM
  Growth (Fig. S2D): 7.921
Cycloheximide.0.05.uM
  Growth (Fig. S2D): 11.026
Cycloheximide.0.2.uM
  Growth (Fig. S2D): 10.6068
Cycloheximide.0.5.uM
  Growth (Fig. S2D): 10.1487
DMSO.2.
  Growth (Fig. S2D): 10.9996
DMSO.6.
  Growth (Fig. S2D): 9.7528
DMSO.8.
  Growth (Fig. S2D): 9.017
Ethanol.2.
  Growth (Fig. S2D): 10.7382
Ethanol.6.
  Growth (Fig. S2D): 10.327
Ethanol.8.
  Growth (Fig. S2D): 10.13
Galactose.2.
  Growth (Fig. S2D): 10.7623
Glycerol.2.
  Growth (Fig. S2D): 9.776
Hydroxyurea.25mM
  Growth (Fig. S2D): 10.8154
Hygromycin.190uM
  Growth (Fig. S2D): 11.0114
Hygromycin.19uM
  Growth (Fig. S2D): 10.9627
Hygromycin.95uM
  Growth (Fig. S2D): 10.9456
MMS.0.004.
  Growth (Fig. S2D): 11.0063
MMS.0.02.
  Growth (Fig. S2D): 10.7015
MMS.0.04.
  Growth (Fig. S2D): 10.0905
Menadione.100uM
  Growth (Fig. S2D): 10.612
Menadione.200uM
  Growth (Fig. S2D): 10.4246
Menadione.50uM
  Growth (Fig. S2D): 10.8341
NaCl.0.25M
  Growth (Fig. S2D): 10.7827
NaCl.1M
  Growth (Fig. S2D): 9.573
Nitroquinoline.10uM
  Growth (Fig. S2D): 10.6267
Nitroquinoline.50uM
  Growth (Fig. S2D): 10.6407
Nystatin.0.01uM
  Growth (Fig. S2D): 11.0406
Nystatin.0.1uM
  Growth (Fig. S2D): 11.0134
Raffinose.2.
  Growth (Fig. S2D): 11.0354
Rapamycin.10nM
  Growth (Fig. S2D): 9.9199
Rapamycin.50nM
  Growth (Fig. S2D): 9.475
SC.pH3
  Growth (Fig. S2D): 10.3897
SC.pH6
  Growth (Fig. S2D): 10.9841
SDS.0.01.
  Growth (Fig. S2D): 10.9238
SDS.0.02.
  Growth (Fig. S2D): 11.0048
SDS.0.05.
  Growth (Fig. S2D): 10.8898
Sorbitol.10mM
  Growth (Fig. S2D): 10.9854
Sorbitol.1mM
  Growth (Fig. S2D): 11.0069
Sorbitol.5mM
  Growth (Fig. S2D): 10.9417
